Laboratory results taken from patent US20030235860A1, “Interactions between AR, ER, TR2, and TR4” (priority 1999, published 2003).

What was measured:
PSA = test: Northern blot of endogenous PSA in LNCaP cells; assay type: cell-based, human; details: LNCaP cells
Protocol: Total RNA from the DHT-treated transfected LNCaP cells was prepared by the ultracentrifugation method as described. Lee, et al., J: Biol. Chem. 273, 13437-13443 (1998). The probe was obtained from exon 3 of PSA gene and labeled with a-32p dCTP.
To rule out the potential artificial effects linked to transfected reporter assays, the expression of endogenous prostate specific antigen (PSA, an androgen target that is widely used as a marker for prostate cancer progression) in LNCaP cells was measured by Northern blot analysis. Total RNA (25 μg) from LNCaP cells, which were transfected with either pCMX-TR4 or pCMX vector using SuperFect (Qiagen), was applied into a formamide RNA gel, then transferred onto a Nylon membrane, and then hybridized with a 32P-PSA gene fragment from the exon 3. P-actin was used as an internal control. […] The level of secreted PSA protein in the medium measured by ELISA, also confirmed this conclusion. This in vivo TR4-mediated suppressive effect strongly supports the above reporter assays.
Total RNA from transfected LNCaP cells was prepared using TRIZOL reagents (Life Technology) as instructed by manufacturer. The probe was obtained from the PSA gene by PCR and labeled with 32P dCTP. Northern hybridization was performed as described previously [Mu X. M. et al. (2002) J Biol Chem 275:23877-23883].

MCF7-TR2 cells = test: MTT growth assay, MCF7-TR2 cells; assay type: cell-based; details: MCF7-TR2 cells; 10 nM E2, and/or 2 mg/ml doxycycline (TR2 induction)
Protocol: (A) Growth assays were performed by MTT method as instructed by manufacturer (Sigma). 5×10^3 MCF7-pBIG and MCF7-TR2 cells were seeded in 24-well plates and incubated in RPMI with 10% CD-FCS for 48 h. […] After 3- and 5-day treatment, cells were harvested for MTT assay. Data represents the relative folds of MTT O.D.570 values at day 5 divided by that at day 3. […] Cells were then trypsinized and fixed overnight in 70% Ethanol. After cells were incubated with 1 mg/ml RNase A (Sigma) and propidium iodide (Roche Molecular Biochemicals), the DNA contents of cells were measured by a flow cytometry. (C) Percentage of growth suppression by TR2. MCF7-TR2 cells were seeded at 5×10^3 cells per well in 24-well plates. […] The treatments were changed every two days. The indices of cell growth were determined by MTT assay. The MTT values from cells without doxycycline were set as 100% in each kind of treatment. Values are represented by the percentage of growth suppression from cells with doxycycline to that without doxycycline.

[1] = molecular target: T1, estrogen receptor (ER), full-length (human, UniProt P03372 1-595); test: Table 4, summary of interactions tested; assay not given
T1 construct: 35S-labeled when in vitro translated for the pull-downs; endogenous in MCF7 cells for the co-immunoprecipitation; also called ERα; pSG5-ER
T1 sequence: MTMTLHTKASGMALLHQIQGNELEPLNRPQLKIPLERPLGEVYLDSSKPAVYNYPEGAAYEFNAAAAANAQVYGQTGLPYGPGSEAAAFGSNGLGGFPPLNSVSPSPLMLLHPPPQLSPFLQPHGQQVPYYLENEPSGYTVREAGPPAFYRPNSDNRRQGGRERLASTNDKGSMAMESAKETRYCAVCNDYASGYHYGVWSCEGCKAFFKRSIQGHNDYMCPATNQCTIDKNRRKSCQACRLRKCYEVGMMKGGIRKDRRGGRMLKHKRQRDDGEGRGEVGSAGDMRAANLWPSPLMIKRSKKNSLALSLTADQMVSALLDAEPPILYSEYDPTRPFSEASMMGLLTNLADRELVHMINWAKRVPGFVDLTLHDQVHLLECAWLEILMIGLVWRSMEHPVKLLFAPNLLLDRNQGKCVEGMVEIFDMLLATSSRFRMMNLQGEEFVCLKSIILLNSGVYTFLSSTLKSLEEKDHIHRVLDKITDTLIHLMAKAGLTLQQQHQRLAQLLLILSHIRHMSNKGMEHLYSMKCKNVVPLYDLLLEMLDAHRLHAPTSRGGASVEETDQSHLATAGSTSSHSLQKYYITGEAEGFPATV

TR2 = molecular target: T2, TR2 (Homo sapiens, UniProt P13056); test: GST-ER fragment pull-down of [35S]-TR2; assay type: binding; design: host or cells: in vitro translation, TNT reticulocyte lysate; details: for Interaction with [35S]-TR2: GST-ER fragments, presence of 1 μM E2, Example 1; for Interaction with TR2: GST-fused ER peptides, presence or absence of E2, Example 2
T2 sequence (P13056 1-603): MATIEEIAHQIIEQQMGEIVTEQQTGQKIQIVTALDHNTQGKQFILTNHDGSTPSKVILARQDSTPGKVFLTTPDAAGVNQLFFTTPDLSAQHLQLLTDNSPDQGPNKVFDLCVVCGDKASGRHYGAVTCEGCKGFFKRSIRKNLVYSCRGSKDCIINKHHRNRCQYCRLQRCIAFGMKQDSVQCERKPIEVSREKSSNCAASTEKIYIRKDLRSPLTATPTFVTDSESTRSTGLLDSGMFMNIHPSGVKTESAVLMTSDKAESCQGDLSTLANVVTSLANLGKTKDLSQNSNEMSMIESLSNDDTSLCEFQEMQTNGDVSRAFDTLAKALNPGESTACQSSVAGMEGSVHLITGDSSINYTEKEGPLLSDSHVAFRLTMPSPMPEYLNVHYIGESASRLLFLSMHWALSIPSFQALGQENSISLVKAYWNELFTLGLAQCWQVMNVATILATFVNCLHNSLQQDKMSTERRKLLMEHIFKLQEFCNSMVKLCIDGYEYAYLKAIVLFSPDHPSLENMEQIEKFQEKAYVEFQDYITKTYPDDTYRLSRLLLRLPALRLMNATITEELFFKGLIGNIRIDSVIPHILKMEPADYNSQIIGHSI
Protocol: Fusion proteins of GST-TR2, GST-ER segments and GST were obtained by transforming expressing plasmids into BL21(DE3) pLysS competent bacteria followed with 2-hour IPTG induction. GST-proteins were then purified by mixing Glutathione-Sepharose™ 4B (Pharmacia) into bacteria lysates on a rotating disk at 4° C. for 40 mm followed by washing with 1 mL NENT buffer (20 mM Tris-HCL (pH 8.0), 100 mM NaCl, 1 mM EDTA, 6 mM MgCl2, 1 mM Dithiothretiol, 8% Glycerol, 1 mM PMSF and 0.5% (v/v) NP-40). The ER, AR, RXRA., and TR2 proteins labeled with [35S] were generated in vitro by using the TNT reticulocyte lysate system (Promega). For the in vitro interaction, the glutathione-Sepharose bound GST-proteins were resuspended with 100 μl of interaction buffer (20 mM HEPES pH 7.9, 150 mM KCl, 5 mM MgCl2. 0.5 mM EDTA, 0.5 mM Dithiothretiol, 0.1% (v/v) NP-40, 0.1% (w/v) BSA and 1 mM PMSF) and mixed with 5 μl of […] at 4° C. for 3 h. After extensive washes with NENT buffer, the bound proteins were separated on an SDS/8% PAGE and visualized by using autoradiography.
The in vitro GST pull-down assay was applied to examine the interaction between the TR2 and ER. In vitro-translated, [35S]-labeled ER, AR, and RXRα proteins were incubated with GST or GST-TR2 bound on glutathione-Sepharose beads. After extensive washing, proteins were separated on an SDS/8% PAGE and visualized by using autoradiography.
GST alone and GST fusion proteins were purified by Glutathione-Sepharose 4B beads as instructed by manufacturer (Amersham Pharmacia). The pull-down assay was performed with 5 μl of in vitro-translated [^35S]-labeled proteins as described previously (Yeh, S. et al. (2000) Proc. Natl. Acad. Sci. USA 97, 11256-61).

Q: With C[C@]12CCC(=O)C[C@@H]1CC[C@@H]1[C@@H]2CC[C@]2(C)[C@@H](O)CC[C@@H]12 [DHT, hihydroxytestosterone, reference compound] as the molecule, how does the “PSA mRNA expression” value (PSA; 10 nM DHT, pCMV-TR2, Example 4) read?
A: induces PSA mRNA expression

Q: What about the “Induction of PSA transcript” value (PSA; 24 hours of DHT treatment) of the same molecule?
A: about 2.5 fold

Q: With C[C@H]1c2cccc(O)c2C(=O)C2=C(O)[C@]3(O)C(=O)C(C(N)=O)=C(O)[C@@H](N(C)C)[C@@H]3[C@@H](O)[C@@H]21 [doxycycline, reference compound] as the molecule, how does the “Cell growth, relative folds of MTT O.D.570 at day 5 divided by day 3” value (MCF7-TR2 cells) read?
A: 11.1 fold

B1: TR2 N-T (row label of Table 4) (receptor)
chain: MATIEEIAHQIIEQQMGEIVTEQQTGQKIQIVTALDHNTQGKQFILTNHDGSTPSKVILARQDSTPGKVFLTTPDAAGVNQLFFTTPDLSAQHLQLLTDNSPDQGPNKVFDL
notes: also called TR2 N-terminal domain; not shown: GST fusion partner of pGEX-KG (GST-TR2-#1)
Q: Does B1 bind [1]?
A: no binding

B2: GST-ER-N: GST fusion of aa 1-165 of ER (protein)
chain: MTMTLHTKASGMALLHQIQGNELEPLNRPQLKIPLERPLGEVYLDSSKPAVYNYPEGAAYEFNAAAAANAQVYGQTGLPYGPGSEAAAFGSNGLGGFPPLNSVSPSPLMLLHPPPQLSPFLQPHGQQVPYYLENEPSGYTVREAGPPAFYRPNSDNRRQGGRERL
modifications: left off: a dimerising Fc or GST; small tags and cut ends
notes: GST fusion of aa 1-165 of ER
Q: For B2, which “Interaction with [35S]-TR2” value (TR2) is on record?
A: not

B3: GST-ER-#I: GST fusion of ER aa 1-165 (protein)
chain: B2 chain
modifications: left off: a dimerising Fc or GST; small tags and cut ends
Q: With B3 as the molecule, how does the “Interaction with TR2” value (TR2) read?
A: not

B4: TR2 DBD (row label of Table 4) (receptor)
chain: DLSAQHLQLLTDNSPDQGPNKVFDLCVVCGDKASGRHYGAVTCEGCKGFFKRSIRKNLVYSCRGSKDCIINKHHRNRCQYCRLQRCIAFGMKQDSVQCERKPIEVSREK
notes: not shown: GST fusion partner of pGEX-KG (GST-TR2-#2)
Q: Does B4 bind [1]?
A: binds

B5: GST-ER-DBD: GST fusion of aa 123-340 of ER (protein)
chain: PHGQQVPYYLENEPSGYTVREAGPPAFYRPNSDNRRQGGRERLASTNDKGSMAMESAKETRYCAVCNDYASGYHYGVWSCEGCKAFFKRSIQGHNDYMCPATNQCTIDKNRRKSCQACRLRKCYEVGMMKGGIRKDRRGGRMLKHKRQRDDGEGRGEVGSAGDMRAANLWPSPLMIKRSKKNSLALSLTADQMVSALLDAEPPILYSEYDPTRPFSEA
modifications: left off: a dimerising Fc or GST; small tags and cut ends
notes: GST fusion of aa 123-340 of ER
Q: For B5, which “Interaction with [35S]-TR2” value (TR2) is on record?
A: not

B6: GST-ER-#2: GST fusion of ER aa 123-340 (protein)
chain: B5 chain
modifications: left off: a dimerising Fc or GST; small tags and cut ends
Q: For B6, which “Interaction with TR2” value (TR2) is on record?
A: can interact

B7: TR4 LBD (row label of Table 4) (receptor)
chain: AASTEKIYIRKDLRSPLIATPTFVADKDGARQTGLLDPGMLVNIQQPLIREDGTVLLATDSKAETSQGALGTLANVVTSLANLSESLNNGDTSEIQPEDQSASEITRAFDTLAKALNTTDSSSSPSLADGIDTSGGGSIHVISRDQSTPIIEVEGPLLSDTHVTFKLTMPSPMPEYLNVHYICESASRLLFLSMHRARSIPAFQGLGQDCNTSLVRACWNELFTLGLAQCAQVMSLSTILAAIVNHLQNSIQEDKLSGDRIKQVMEHIWKLQEFCNSMANWDIDGYEYAYLKAIVLFSPDHPGLTSTSQIEKFQEKAQMELQDYVQKTYSEDTYRLARILVRLPALRLMSSNITEELFFTGLIGNVSIDSIIPYILKMETAEYNGQITGVSL
notes: not shown: Fusion partner: GST in the pull-down with ER, GAL4-DBD in the hybrid assays with AR
Q: Does B7 bind [1]?
A: binds
